According to PMC3288383 (Journal of Molecular Biology, 2012):
Values joined by “and” are separate entries in the source; they are usually repeats but may differ in a detail not shown here. Identical values can stand only once. Values belong to the binder of their own block, whether it stands above or below them.

How the values were obtained:
[1] = molecular target: T1, Jac1 (wild type), His-tagged (S. cerevisiae, UniProt P53193 11-184); assay: pull-down
T1 sequence (looked up): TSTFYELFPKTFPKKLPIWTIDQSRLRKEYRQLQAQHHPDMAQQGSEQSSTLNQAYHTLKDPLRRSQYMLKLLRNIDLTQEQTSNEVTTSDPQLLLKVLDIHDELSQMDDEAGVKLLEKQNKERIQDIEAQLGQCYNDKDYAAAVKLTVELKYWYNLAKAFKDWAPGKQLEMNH

Jac1_(L106) = molecular target: T2, Jac1_(L106) (S. cerevisiae, UniProt P53193 11-184, L106 to Ala); assay: pull-down
T2 sequence (looked up): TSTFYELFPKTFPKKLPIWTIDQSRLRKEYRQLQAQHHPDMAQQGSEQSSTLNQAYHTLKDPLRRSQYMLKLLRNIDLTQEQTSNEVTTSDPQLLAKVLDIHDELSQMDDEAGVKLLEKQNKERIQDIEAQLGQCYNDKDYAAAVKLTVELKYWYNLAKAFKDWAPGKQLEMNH

Isu1His = molecular target: T3, Isu1His (S. cerevisiae, UniProt Q03020 28-165); assay: cell-based or functional assay
T3 sequence (looked up): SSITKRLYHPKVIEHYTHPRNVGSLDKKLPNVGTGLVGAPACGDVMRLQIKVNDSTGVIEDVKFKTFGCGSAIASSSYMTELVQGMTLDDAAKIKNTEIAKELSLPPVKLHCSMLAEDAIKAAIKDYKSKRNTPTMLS

Kd [1]: 690 nM and 800 nM
Kd (Jac1_(L106)): 250 ± 70 nM
B1: Isu1-GST (natural protein, S. cerevisiae, UniProt Q03020 28-165, looked up)
chain: SSITKRLYHPKVIEHYTHPRNVGSLDKKLPNVGTGLVGAPACGDVMRLQIKVNDSTGVIEDVKFKTFGCGSAIASSSYMTELVQGMTLDDAAKIKNTEIAKELSLPPVKLHCSMLAEDAIKAAIKDYKSKRNTPTMLS

stimulation of Ssq1 ATPase activity: increase of C0.5 against wt (Isu1His): ~15 fold
B2: Jac1Y (natural protein, S. cerevisiae, UniProt P53193 11-184, looked up)
chain: TSTFYELFPKTFPKKLPIWTIDQSRLRKEYRQLQAQHHPDMAQQGSEQSSTLNQAYHTLKDPLRRSQYMLKLLRNIDLTQEQTSNEVTTSDPQLLLKVLDIHDELSQMDDEAGVKLLEKQNKERIQDIEAQLGQCYNDKDYAAAVKLTVELKAWYNLAKAFKDWAPGKQLEMNH

stimulation of Ssq1 ATPase activity: C0.5 compared to the wt control (Isu1His): ~24 fold
B3: Jac1LLL (natural protein, S. cerevisiae, UniProt P53193 11-184, looked up)
chain: TSTFYELFPKTFPKKLPIWTIDQSRLRKEYRQLQAQHHPDMAQQGSEQSSTLNQAYHTLKDPLRRSQYMLKLLRNIDLTQEQTSNEVTTSDPQLAAKVADIHDELSQMDDEAGVKLLEKQNKERIQDIEAQLGQCYNDKDYAAAVKLTVELKYWYNLAKAFKDWAPGKQLEMNH
